Experiment [1] addresses T1, GHRH receptor (thymus cells, 3- and 14-month old rats) (Rattus norvegicus, UniProt Q02644).
T1 chain: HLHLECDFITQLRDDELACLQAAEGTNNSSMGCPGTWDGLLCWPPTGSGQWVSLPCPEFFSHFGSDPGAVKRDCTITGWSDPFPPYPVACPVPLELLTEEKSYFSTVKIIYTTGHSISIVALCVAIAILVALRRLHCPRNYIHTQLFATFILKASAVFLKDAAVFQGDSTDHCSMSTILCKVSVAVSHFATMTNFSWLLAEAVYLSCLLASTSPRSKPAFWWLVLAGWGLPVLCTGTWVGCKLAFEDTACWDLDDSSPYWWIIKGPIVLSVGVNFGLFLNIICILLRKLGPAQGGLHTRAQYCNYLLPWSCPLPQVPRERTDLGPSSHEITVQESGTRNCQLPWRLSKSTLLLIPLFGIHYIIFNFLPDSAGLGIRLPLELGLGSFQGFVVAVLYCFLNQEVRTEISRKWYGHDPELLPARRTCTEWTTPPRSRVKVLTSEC
The experiment can be described thus: homologous competitive radioligand binding.

For experiment [2], the target named is T2, GHRH receptor (spleen cells, 3- and 14-month old rats) (Rattus norvegicus, UniProt Q02644).
T2 chain: T1 chain
As to the kind of experiment: homologous competitive radioligand binding.

Results on one molecule are retold here after article PMC3736351 (2014).

As a reminder, the Kd is the free concentration of one partner at which half of the binding sites on the other are occupied at equilibrium, for simple one-to-one binding.

Turning to MPLWVFFFVILTLSNSSHCSPPPPLTLRM [GHRH 1-29], the equilibrium dissociation constant (Kd) in experiment [1] came out at 1 nM; in experiment [2], 2 nM.
